Measurements published in US20020098560.

How the values were obtained:
[1] = system: Recombinant TFPI-2 (novel human Kunitz-type inhibitor encoded by clone J-2-11, expressed in BHK570 cells and purified from conditioned medium)
[2] = biological target: T1, Recombinant TFPI-2 (novel human Kunitz-type inhibitor encoded by clone J-2-11, expressed in BHK570 cells and purified from conditioned medium)
T1 chain: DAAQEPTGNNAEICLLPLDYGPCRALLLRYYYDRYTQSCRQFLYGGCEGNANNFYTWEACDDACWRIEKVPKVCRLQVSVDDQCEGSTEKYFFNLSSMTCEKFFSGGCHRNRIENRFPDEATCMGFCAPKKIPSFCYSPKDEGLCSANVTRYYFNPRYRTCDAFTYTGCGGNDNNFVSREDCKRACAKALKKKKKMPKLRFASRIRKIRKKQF

## Human thrombin
[1]
  amidolytic activity of human thrombin towards chromogenic substrate S-2238 (absorbance at 405 nm): Recombinant TFPI-2 was shown to have no effect on the amidolytic activity of human thrombin towards S-2238.

## Human factor Xa
[1]
  amidolytic activity of 20 nM factor Xa towards chromogenic substrate S-2222 (absorbance at 405 nm): Recombinant TFPI-2 was shown to weakly inhibit the amidolytic activity of 20 nM factor Xa towards the chromogenic substrate S-2222 in a dose-dependent manner.

B1: Human factor VIIa/tissue factor complex (recombinant human factor VIIa with recombinant, truncated, human tissue factor apoprotein TF1-219) (protein)
chain 1: ANAFLEELRPGSLERECKEEQCSFEEAREIFKDAERTKLFWISYSDGDQCASSPCQNGGSCKDQLQSYICFCLPAFEGRNCETHKDDQLICVNENGGCEQYCSDHTGTKRSCRCHEGYSLLADGVSCTPTVEYPCGKIPILEKRNASKPQGRIVGGKVCPKGECPWQVLLLVNGAQLCGGTLINTIWVVSAAHCFDKIKNWRNLIAVLGEHDLSEHDGDEQSRRVAQVIIPSTYVPGTTNHDIALLRLHQPVVLTDHVVPLCLPERTFSERTLAFVRFSLVSGWGQLLDRGATALELMVLNVPRLMTQDCLQQSRKVGDSPNITEYMFCAGYSDGSKDSCKGDSGGPHATHYRGTWYLTGIVSWGQGCATVGHFGVYTRVSQYIEWLQKLMRSEPRPGVLLRAPFP
chain 2: SGTTNTVAAYNLTWKSTNFKTILEWEPKPVNQVYTVQISTKSGDWKSKCFYTTDTECDLTDEIVKDVKQTYLARVFSYPAGNVESTGSAGEPLYENSPEFTPYLETNLGQPTIQSFEQVGTKVNVTVEDERTLVRRNNTFLSLRDVFGKDLIYTLYYWKSSSSGKKTAKTNTNEFLIDVDKGENYCFSVQAVIPSRTVNRKSTDSPVECMGQEKGEFRE
[2]
  amidolytic activity of 20 nM factor VIIa-tissue factor towards chromogenic substrate S-2288 (absorbance at 405 nm): Recombinant TFPI-2 was shown to inhibit the amidolytic activity of 20 nM factor VIIa-tissue factor towards the chromogenic substrate S-2288 in a dose-dependent manner.
